Experimental data from US20030036699A1, “Methods and systems which use annexin for bioprofiling body lumen” (IMETRx, Inc., priority 2001, published 2003).
“And” between values parts separate entries of the source, which are not always exact repeats. Equal entries are not always repeated.

B1: annexin V-^99mTc (protein, UniProt P08758 2-320, looked up)
Annexin A5: AQVLRGTVTDFPGFDERADAETLRKAMKGLGTDEESILTLLTSRSNAQRQEISAAFKTLFGRDLLDDLKSELTGKFEKLIVALMKPSRLYDAYELKHALKGAGTNEKVLTEIIASRTPEELRAIKQVYEEEYGSSLEDDVVGDTSGYYQRMLVVLLQANRDPDAGIDEAQVEQDAQALFQAGELKWGTDEEKFITIFGTRSVSHLRKVFDKYMTISGFQIEETIDRETSGNLEQLLLAVVKSIRSIPAYLAETLYYAMKGAGTDDHTLIRVMVSRSEIDLFNIRKEFRKNFATSLYSMIKGDTSGDYKKALLLLCGEDD
modifications: technetium-99m label
notes: Annexin V, a human protein (36 kD) of 319 amino acids, radiolabeled with technetium-99m as tracer

Tested on: injured iliac vessel (arterial lesions)
Experiment: Tracer uptake by autoradiography of harvested aorta/iliac in balloon-injured, cholesterol-fed rabbits
Assay type: in vivo, rabbit
Conditions: for Figure of Merit (FOM): FOM=3(AUR)(PUR)(PBR); for Peak Uptake Ratio (PUR): peak lesion uptake vs uninjured zone, autoradiograph after single IV tracer dose; for Average Uptake Ratio (AUR): ratio of uptake in injured vs uninjured iliac vessel, autoradiograph about 2.5 h after single IV tracer dose
Protocol: Twenty-one adult male rabbits (weighing 3-4 kg at the time of tracer administration) were each were fed a high cholesterol, high fat diet for one week. Following one week of feeding, the rabbits were heparinized, anesthetized with ketamine HCI (25 mg/kg, IM) and medetomidine (0.5 mg/kg, IM), and underwent a left carotid arteriotomy. A 3-4F Fogarty catheter was advanced through the arteriotomy under fluoroscopic guidance into the right iliac artery. The Fogarty balloon was inflated with 0.4-0.75 ml of contrast media (to assist with localization by fluoroscopy) and withdrawn to the level of diaphragm. The balloon was deflated, the catheter returned to the distal iliac under fluoroscopic guidance, and the process repeated. There were six repetitions of the procedure. The neck incision was closed, and the animals received Baytril (5 mg IM) for 3 days following surgery to minimize infection. The animals were allowed to recover for four additional weeks while the high fat/high cholesterol diet was continued. The rabbits were divided into seven groups of […] each. On the day of study, a blood sample was drawn to measure lipids (cholesterol), and two groups of three animals received a single tracer dose intravenously via a marginal ear vein. The first group of three rabbits received annexin V-^99mTc.
Two hours after the radiopharmaceutical was administered, the animals were injected with Evans blue to identify the areas of injury an re-endothelialized aorta and iliac vessel. Thirty minutes later, the animals were anesthetized with sodium pentothal (35 mg/kg, IV) and, a thoracotomy and a midline laporotomy incision were performed. The left ventricle was identified, a trocar placed in the chamber, and a cannula placed in the abdominal aorta. The rabbit was partially exsanguinated, followed by infusion of 100 mL lactated Ringer's solution, and subsequently perfused with 0.4% paraformaldehyde (PFA) for about 5 min at about 100 mmHg pressure.
Following euthanasia, the aorta was harvested, photographed (SONY Mavica) and autoradiographed (Molecular Dynamics). An aliquot of blood and an aliquot of the injected dose were included on the plate to permit quantification. The autoradiographs were compared to the Evans Blue stained specimen to determine where the tracer had localized with reference to the injury. A ratio between uptake in the injured and uninjured iliac vessel was determined (average uptake ratio) using analysis option of ‘Image Quest^1.’ Additional ratios were created using the average counts in regions of interest placed over the area with peak uptake on the autoradiograph with each agent, and a ratio of peak uptake to the activity in an aliquot blood were determined.
To simplify the process of integrating the information, a Figure of Merit was calculated, using the formula: […]

Molecule	Figure of Merit (FOM)	activity in injured iliac vessel relative to uninjured site (animals 1 and 3) [fold]	Peak Uptake Ratio (PUR)	Average Uptake Ratio (AUR)	localization of tracer on the autoradiograph relative to lesion sites (autoradiograph compared with Evans Blue stained specimen)	Peak to Blood Ratio (PBR) (peak lesion uptake vs activity in an aliquot of blood)
albumin-^125I [reference compound]	14	3	5.1 and 5.2	3.0	–	–
B1	1701	–	15	8.4	striking correlation between lesion sites and localization of annexin	4.5
